{
  "source": "patent US20150374845A1",
  "assay_in_all_cases": "cell-based or functional assay",
  "key": {"[1]": {"molecular_target": "beta1 integrin on mammary epithelial cells (MECs) (UniProt P09055)", "sequence (P09055 21-798 limits assumed)": "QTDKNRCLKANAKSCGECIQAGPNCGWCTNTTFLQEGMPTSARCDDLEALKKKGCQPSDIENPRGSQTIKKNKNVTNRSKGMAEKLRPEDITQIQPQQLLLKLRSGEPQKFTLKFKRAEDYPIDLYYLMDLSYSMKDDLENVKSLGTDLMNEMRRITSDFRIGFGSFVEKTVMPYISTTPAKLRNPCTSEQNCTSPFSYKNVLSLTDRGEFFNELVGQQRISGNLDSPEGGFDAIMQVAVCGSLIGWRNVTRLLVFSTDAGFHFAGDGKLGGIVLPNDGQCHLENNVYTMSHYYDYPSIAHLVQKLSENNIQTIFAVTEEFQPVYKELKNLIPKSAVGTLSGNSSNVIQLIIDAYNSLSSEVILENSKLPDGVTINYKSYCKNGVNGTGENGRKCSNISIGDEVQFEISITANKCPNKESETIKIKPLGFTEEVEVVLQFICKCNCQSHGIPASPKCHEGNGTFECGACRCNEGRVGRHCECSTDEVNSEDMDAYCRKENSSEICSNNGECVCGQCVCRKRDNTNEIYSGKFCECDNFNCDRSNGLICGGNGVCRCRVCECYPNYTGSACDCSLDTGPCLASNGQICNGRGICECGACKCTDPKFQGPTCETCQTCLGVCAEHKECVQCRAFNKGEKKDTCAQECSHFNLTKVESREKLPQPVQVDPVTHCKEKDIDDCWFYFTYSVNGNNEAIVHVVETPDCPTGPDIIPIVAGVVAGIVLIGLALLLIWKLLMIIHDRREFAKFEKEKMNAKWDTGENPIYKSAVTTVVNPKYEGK"}, "[2]": {"molecular_target": "hypoglycosylated dystroglycan of vector-infected MDA-MB-231 human breast cancer cells and LN18 human glioma cells (human) (UniProt Q14118)"}, "[3]": {"molecular_target": "glycosylated dystroglycan of LARGE-expressing MDA-MB-231 human breast cancer cells and LN18 human glioma cells (human) (UniProt Q14118)"}, "[4]": {"molecular_target": "human dystroglycan (WT DG) expressed by retrovirus in DG-knockout MEpG mammary epithelial cells (human) (UniProt Q14118)"}, "[5]": {"molecular_target": "wild type human beta1 integrin re-expressed by retrovirus in beta1 integrin-knockout E3D1cre19 MECs (human) (UniProt P05556)", "sequence (P05556 21-798)": "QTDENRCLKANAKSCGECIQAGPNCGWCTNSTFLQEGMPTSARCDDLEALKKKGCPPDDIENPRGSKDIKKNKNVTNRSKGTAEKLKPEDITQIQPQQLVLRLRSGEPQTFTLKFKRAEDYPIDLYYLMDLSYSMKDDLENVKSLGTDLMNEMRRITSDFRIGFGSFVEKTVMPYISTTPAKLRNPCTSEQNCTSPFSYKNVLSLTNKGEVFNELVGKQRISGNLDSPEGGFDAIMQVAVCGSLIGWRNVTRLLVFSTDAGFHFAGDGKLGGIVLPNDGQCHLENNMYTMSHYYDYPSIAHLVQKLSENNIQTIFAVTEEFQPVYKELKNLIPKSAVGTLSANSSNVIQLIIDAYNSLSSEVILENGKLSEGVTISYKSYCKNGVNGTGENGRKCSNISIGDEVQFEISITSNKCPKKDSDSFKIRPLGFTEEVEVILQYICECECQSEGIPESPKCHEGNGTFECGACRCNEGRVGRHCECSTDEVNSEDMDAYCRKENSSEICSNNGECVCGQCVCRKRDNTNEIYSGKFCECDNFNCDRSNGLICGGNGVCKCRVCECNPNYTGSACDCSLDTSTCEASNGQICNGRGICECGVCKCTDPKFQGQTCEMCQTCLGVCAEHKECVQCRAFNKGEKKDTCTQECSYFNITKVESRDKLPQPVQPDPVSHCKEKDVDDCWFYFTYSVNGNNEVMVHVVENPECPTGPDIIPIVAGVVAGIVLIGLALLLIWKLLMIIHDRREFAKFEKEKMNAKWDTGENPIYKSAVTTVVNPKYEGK"}},
  "data": [
    {"substance": "Hat2/5 antibody", "values": [
      {"measurement": "Ln internalization, cellular fluorescence intensity of Rhod-Ln by flow cytometry, normalized to Ln alone control", "setting": "[1]", "result": 36, "unit": "% decrease"}
    ]},
    {"substance": "rhodamine-labeled laminin-111 (from UniProt P19137 25-3083; P02469 22-1786; P02468 34-1607) (ligand)", "values": [
      {"measurement": "MFI of internalized Rhod-Ln, flow cytometry, LN18 cells", "setting": "[2]", "result": 0.145, "unit": "MFI"},
      {"measurement": "MFI of internalized Rhod-Ln, flow cytometry, MDA-MB-231 cells", "setting": "[2]", "result": 0.1, "unit": "MFI"}
    ]},
    {"substance": "rhodamine-labeled laminin-111, P19137 25-3083; P02469 22-1786; P02468 34-1607", "values": [
      {"measurement": "MFI of internalized Rhod-Ln, flow cytometry, LN18 cells", "setting": "[3]", "result": 1.49, "unit": "MFI"},
      {"measurement": "MFI of internalized Rhod-Ln, flow cytometry, MDA-MB-231 cells", "setting": "[3]", "result": 6.82, "unit": "MFI"},
      {"measurement": "increase in MFI of internalized laminin, LARGE-expressing against vector LN18 cells", "setting": "[3]", "result": 10, "unit": "fold"},
      {"measurement": "increase in MFI of internalized laminin, LARGE-expressing against vector MDA-MB-231 cells", "setting": "[3]", "result": 68, "unit": "fold"},
      {"measurement": "compiled MFI of internalized Rhod-Ln, DG-expressing against DG-lacking MEpG cells", "setting": "[4]", "result": 4, "unit": "fold"},
      {"measurement": "compiled mean fluorescence intensity (MFI) of internalized Rhod-Ln, flow cytometry, MEpG cells", "setting": "[4]", "result": 18, "unit": "MFI"},
      {"measurement": "laminin internalization, compiled mean fluorescence intensity flow cytometry data", "setting": "[4]", "result": 380, "unit": "% more"},
      {"measurement": "MFI of internalized laminin, flow cytometry, E3D1cre19 cells", "setting": "[5]", "result": 26.8, "unit": "MFI"},
      {"measurement": "change in laminin internalization on re-expression of WT β1 integrin in β1 int-/- cells", "setting": "[5]", "result": 20, "unit": "% increase"}
    ]}
  ]
}
